Experiments:
Assay in all cases: Kinase Profiling Assay
Format in all cases: biochemical
Conditions in all cases: 100 μM
CaMKIδ (h) = target: T1, CaMKIδ (h) (Homo sapiens, UniProt Q8IU85)
T1 construct: purchased Millipore
Summary of the method: (§1)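 Activity remaining relative to an uninhibited control was determined by scintillation counting of labeled substrate bound to a negatively charged filter. Radiolabeled phosphate came from ATP; the substrate carried positive charge. Duplicate measurements, within a 266-kinase human panel.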

DDR2 (h) = target: T2, DDR2 (h) (Homo sapiens, UniProt Q16832)
T2 construct: purchased Millipore
T2 sequence (Q16832 22-855): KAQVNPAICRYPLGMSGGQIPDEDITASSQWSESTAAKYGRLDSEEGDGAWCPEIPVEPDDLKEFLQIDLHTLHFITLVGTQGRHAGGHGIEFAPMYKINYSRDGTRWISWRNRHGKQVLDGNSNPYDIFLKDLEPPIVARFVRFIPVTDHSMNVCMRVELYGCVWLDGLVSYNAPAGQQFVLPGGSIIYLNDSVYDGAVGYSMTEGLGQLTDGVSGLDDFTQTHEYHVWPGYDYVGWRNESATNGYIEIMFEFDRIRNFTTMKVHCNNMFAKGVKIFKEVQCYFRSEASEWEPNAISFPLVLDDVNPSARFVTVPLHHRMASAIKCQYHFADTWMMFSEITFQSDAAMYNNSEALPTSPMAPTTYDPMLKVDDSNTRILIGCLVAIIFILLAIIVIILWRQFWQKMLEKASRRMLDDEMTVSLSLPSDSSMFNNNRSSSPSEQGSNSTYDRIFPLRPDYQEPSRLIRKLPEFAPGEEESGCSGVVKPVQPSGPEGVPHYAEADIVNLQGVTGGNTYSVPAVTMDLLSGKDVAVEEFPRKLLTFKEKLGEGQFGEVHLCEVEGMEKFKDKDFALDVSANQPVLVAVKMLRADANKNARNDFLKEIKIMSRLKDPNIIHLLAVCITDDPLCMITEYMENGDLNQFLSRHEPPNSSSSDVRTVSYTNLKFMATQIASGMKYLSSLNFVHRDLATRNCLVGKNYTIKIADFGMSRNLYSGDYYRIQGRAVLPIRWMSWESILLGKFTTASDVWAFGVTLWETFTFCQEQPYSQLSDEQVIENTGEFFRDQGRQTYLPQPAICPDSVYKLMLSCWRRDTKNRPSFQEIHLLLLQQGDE
Summary of the method: as §1

EGFR (h) = target: T3, EGFR (h) (Homo sapiens, UniProt P00533)
T3 construct: purchased Millipore
Summary of the method: as §1

HIPK2 (h) = target: T4, HIPK2 (h) (Homo sapiens, UniProt Q9H2X6)
T4 construct: purchased Millipore
Summary of the method: as §1

JNK2α2 (h) = JNK2α2 (h) (Homo sapiens, UniProt P45984)
Summary of the method: as §1

PKCμ (h) = target: T5, PKCμ (h) (Homo sapiens, UniProt Q15139)
T5 sequence (Q15139 1-912): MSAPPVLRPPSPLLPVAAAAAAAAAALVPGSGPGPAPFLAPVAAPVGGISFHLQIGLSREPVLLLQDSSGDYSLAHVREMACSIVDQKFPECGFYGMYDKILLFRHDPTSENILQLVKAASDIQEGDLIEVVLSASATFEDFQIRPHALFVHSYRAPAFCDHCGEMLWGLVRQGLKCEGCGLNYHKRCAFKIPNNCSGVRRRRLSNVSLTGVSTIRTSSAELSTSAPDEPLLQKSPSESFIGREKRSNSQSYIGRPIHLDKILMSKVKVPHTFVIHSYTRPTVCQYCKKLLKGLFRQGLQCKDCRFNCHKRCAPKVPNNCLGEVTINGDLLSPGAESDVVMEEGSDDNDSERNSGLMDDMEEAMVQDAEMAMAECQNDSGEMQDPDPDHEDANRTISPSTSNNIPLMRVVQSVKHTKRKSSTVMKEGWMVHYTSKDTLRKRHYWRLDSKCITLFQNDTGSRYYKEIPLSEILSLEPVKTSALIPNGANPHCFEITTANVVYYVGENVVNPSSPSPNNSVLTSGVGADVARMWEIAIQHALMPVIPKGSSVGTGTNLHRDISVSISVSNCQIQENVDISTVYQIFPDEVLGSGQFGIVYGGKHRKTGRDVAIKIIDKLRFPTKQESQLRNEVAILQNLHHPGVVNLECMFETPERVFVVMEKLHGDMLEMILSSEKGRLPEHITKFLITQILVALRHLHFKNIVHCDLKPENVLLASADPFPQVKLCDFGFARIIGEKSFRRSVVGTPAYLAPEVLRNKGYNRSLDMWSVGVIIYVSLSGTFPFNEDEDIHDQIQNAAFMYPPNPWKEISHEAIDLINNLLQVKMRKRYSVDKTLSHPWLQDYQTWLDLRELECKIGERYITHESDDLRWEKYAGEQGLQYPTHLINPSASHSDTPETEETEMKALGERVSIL
Summary of the method: as §1

SAPK2a (h) = SAPK2a (h) (Homo sapiens, UniProt Q16539)
Summary of the method: as §1

T4 sequence (Q9H2X6 whole entry): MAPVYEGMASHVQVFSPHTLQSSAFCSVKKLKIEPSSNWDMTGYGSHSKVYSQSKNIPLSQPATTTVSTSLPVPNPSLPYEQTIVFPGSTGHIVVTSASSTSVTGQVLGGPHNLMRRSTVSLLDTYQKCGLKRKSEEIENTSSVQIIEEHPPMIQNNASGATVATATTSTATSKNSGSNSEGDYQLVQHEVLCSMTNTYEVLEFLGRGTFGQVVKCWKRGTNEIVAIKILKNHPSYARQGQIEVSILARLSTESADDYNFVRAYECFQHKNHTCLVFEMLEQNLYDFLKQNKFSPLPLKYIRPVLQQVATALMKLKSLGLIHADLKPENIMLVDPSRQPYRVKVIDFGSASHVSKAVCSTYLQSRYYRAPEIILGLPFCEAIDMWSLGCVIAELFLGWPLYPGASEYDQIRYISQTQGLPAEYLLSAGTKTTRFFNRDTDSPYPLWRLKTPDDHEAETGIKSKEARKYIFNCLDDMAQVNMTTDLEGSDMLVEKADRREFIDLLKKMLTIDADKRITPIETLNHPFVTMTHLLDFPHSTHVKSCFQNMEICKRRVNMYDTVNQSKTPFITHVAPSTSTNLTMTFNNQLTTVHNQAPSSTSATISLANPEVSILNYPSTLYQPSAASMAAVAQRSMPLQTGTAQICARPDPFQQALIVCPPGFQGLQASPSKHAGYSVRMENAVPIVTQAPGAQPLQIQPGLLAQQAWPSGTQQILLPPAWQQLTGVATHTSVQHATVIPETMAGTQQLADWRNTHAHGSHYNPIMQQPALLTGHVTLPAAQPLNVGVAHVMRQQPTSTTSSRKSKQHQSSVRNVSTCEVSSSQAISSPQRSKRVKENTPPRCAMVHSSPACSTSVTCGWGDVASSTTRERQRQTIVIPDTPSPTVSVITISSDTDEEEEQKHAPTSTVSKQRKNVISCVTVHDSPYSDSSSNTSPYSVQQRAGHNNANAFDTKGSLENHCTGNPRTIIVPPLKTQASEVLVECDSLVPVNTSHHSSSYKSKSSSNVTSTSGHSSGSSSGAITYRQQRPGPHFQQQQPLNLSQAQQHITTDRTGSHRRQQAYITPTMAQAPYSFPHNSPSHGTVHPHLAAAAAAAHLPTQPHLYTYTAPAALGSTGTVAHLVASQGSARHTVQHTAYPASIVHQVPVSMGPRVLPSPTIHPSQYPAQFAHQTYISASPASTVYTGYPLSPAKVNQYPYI
T1 sequence (Q8IU85 whole entry): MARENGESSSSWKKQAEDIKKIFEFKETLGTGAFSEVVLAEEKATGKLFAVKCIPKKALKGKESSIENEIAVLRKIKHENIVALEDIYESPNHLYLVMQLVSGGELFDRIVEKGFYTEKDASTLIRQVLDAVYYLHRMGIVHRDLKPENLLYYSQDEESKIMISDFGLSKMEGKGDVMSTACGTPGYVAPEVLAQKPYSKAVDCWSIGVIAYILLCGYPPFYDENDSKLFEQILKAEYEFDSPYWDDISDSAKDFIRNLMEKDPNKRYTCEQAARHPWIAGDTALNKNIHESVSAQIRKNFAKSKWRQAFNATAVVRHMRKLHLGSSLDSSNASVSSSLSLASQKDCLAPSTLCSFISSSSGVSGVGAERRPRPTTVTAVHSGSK
SAPK2a (h), sequence (Q16539 whole entry): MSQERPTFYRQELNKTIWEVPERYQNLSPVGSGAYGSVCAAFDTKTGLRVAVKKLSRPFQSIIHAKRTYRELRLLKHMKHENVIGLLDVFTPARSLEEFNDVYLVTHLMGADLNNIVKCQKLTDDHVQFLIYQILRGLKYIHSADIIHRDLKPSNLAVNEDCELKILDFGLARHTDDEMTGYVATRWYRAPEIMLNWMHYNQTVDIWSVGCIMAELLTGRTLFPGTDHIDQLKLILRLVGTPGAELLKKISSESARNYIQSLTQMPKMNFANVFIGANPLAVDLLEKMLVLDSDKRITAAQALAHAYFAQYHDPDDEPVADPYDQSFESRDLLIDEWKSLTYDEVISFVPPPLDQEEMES

Sequence	% activity (CaMKIδ (h)) [%]	% activity (DDR2 (h)) [%]	% activity (EGFR (h)) [%]	% activity (HIPK2 (h)) [%]	% activity (JNK2α2 (h)) [%]	% activity (PKCμ (h)) [%]	% activity (SAPK2a (h)) [%]
KAFAKLAARLYRKALARQLGVAA [MMI-0400]	17	95	16	90	96	14	85
YARAAARQARAKALNRQLGVA (Mammalian) [MMI-0200]	47		83			73	
HRRIKAWLKKIKALARQLGVAA (Mammalian) [MMI-0500]	0	79	−1	38	81	10	52
FAKLAARLYRKALARQLGVAA [MMI-0300]	10	94	21	73	98	22	90
